Assay results taken from patent publication US20230210897A1.

What was measured:
Assay in all cases: cell-based or functional assay
[1] = molecular target: NKA receptor (truncated TGFβ dominant negative receptor fused to DAP12) (human)
[2] = molecular target: NKCT receptor (truncated TGFβ dominant negative receptor fused to a SynNotch receptor coupled to RELA/p65) (human) (UniProt P37173)
[3] = molecular target: RBDNR receptor (truncated TGFβ dominant negative receptor) (human) (UniProt P37173)
[4] = molecular target: wild-type TGFβRII on untransduced (UT) cord blood-derived NK cells (human) (UniProt P37173)

Chain of NKA receptor (truncated TGFβ dominant negative receptor fused to DAP12) (human) (chain, as listed by the source limits assumed, form in doubt): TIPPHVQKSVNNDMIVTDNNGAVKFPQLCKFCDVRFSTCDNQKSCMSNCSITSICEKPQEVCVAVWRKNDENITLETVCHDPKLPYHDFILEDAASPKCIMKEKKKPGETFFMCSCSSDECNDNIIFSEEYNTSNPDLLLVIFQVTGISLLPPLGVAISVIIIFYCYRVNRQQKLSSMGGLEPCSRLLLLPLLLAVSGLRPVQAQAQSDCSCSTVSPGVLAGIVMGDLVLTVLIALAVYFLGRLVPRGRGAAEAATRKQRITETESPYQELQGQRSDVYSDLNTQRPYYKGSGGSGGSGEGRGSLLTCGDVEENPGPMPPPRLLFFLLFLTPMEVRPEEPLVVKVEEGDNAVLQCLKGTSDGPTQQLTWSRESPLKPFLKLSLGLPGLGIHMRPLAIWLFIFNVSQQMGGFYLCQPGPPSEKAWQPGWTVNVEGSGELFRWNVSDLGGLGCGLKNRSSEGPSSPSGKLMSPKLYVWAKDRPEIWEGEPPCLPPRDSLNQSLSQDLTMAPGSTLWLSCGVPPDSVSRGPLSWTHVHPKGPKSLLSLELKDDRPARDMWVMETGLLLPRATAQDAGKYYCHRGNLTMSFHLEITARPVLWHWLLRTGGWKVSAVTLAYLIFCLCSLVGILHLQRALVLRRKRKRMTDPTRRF

- protection from TGFβ-impaired cytolytic activity in vitro (TGFβ concentration at which protection is lost) [1]: > 50 ng/mL
- protection from TGFβ-impaired cytolytic activity in vitro (TGFβ concentration at which protection is lost) [2]: > 50 ng/mL
- protection from TGFβ-impaired cytolytic activity in vitro (TGFβ concentration at which protection is lost) [3]: > 50 ng/mL
- phosphorylated Smad2/3 (Ser465/467) by flow cytometry in untransduced NK cells, 1 hour after 10 ng/mL TGFβ [4]: 73.9%
Substance: TGFβ (ligand)
